Results published in patent US20230348573A1 (KEIO UNIVERSITY, published 2023).

B1: Ab816 (antibody, V domains shown)
VH: QVQLVQSGAEVKKPGESLMISCKASGYNFRNYWIAWVRQMPGKGLEWMGIIHPGDSDIRYRPSLQGHVTISADKSITTAYLQWGSLKASDTAMYYCTRITTDADSSGLFHYWGQGTLVTVSS
VL: EIVLTQSPSTLSASVGDRVTITCRASQNIYTWLAWYQRKPGKAPKVLIYKASSLESGVPSRFSGSGSGTEFTLTISSLQPDDFATYYCQQYKSAWSFGQGTKVEIK
B2: Ab864 (antibody, V domains shown)
VH: EVQLVESGGGLVQPGRSLRLSCAASGFTFDDYAMHWVRQVPGKGLEWVSGISWNKGNIDYADSVKGRFTISRDNAKNSLYLQMNSLRPEDTGLYYCAKDCHYDSPGYFPNCLHSWGQGTLVTVSS
VL: EIVMTQSPSSLSASVGDRVTITCRASQGINTYLAWYQQKPGKAPKLLIYTASTLQSGVPSRFSGSGSGTDFTLTISSLQPEDFATYYCQQVHSYPLTFGGGTKVEIK
B3: Ab765 (antibody, V domains shown)
VH: QVQLVESGGGVVQPGRSLRLSCAASGFTFSDYAIHWVRQAPGRGLEPVALISYDGNNKYYADSVKGRFTISRDNSKNVLYLQMNSLRADDTAVYYCARDAEGGWVAALDYWGQGTLVTVSS
VL: QSALTQPRSVSGSPGQSVTISCTGTSSDVGGYNYVSWYQHHPGKAPKVMIYEVSKRPSGVPDRFSGSKSGTTASLTISGLQAEDEADYYCCSYAGTYPYVFGTGTKVTVL
B4: Ab712 (antibody, V domains shown)
VH: QVQLVQSGSELKKPGASVKISCKASGYTFINHAINWVRQAPGQGLEWMGWINTNTGNPTYAPGFTGRFVFSLDTSVSTAYLQISSLKAEDTAVYYCARIPIRDYDYDGSGYYYFLDYWGQGTLVTVSS
VL: SYELTQDPAVSVALGQTVRITCQGDSLRSSSASWYQQKPGQAPVLVIYGKTNRPSGIPDRFSGSSSGNTASLTITGAQAEDEADYYCNSRDNSGNHPVVFGGGTKLTVL
B5: Ab847 (antibody, V domains shown)
VH: EVQLVQSGAEVKKPGASVKVSCKASGYTFTSYDIIWVRQATGQGLEWMGWMDPSRGTTGYAQTFQGRVTMTRDTSISTAYLELNSLTSEDTAVYYCVAHIVVLDRWFDPWGQGTLVTVSS
VL: DIVMTQSPSSLSASVGDRVTITCQASQDIGNFLNWCQQKPGQAPKVLIYGASNLETGVPSRFSGSGSGTDFTFTISSLQPEDIATYYCQHYDNFPPRFTFGQGTKLDIK
B6: Ab803 (antibody, V domains shown)
VH: EVQLVESGGGLVQPGRSLRVSCAASGFTFDDYAMHWVRQTPRKGLEWVAGISRNSAAIAYADSVKGRFTISRDNAKNSVFLQMNGLRADDTALYYCVKSPRYGWGSPDYSFDFWGRGTLVTVSS
VL: DIQLTQSPSSLSASVGDRVTITCRASQNIGTYLNWYQQEPGKAPKLLIYAASSLQSGVPSRFSGSGSGTDFTLTISSLQPEDFATYCCQQSFTTPLTFGQGTKVEIK
B7: Ab830 (antibody, V domains shown)
VH: QVQLVQSGAEVKKPGSSVKVSCKTSGGTFTNYTISWVRQAPGQGLEWMGRIIPIFDIVNYAQKFQGRVTITADKSTSTTYMELSSLRSEDTAVYYCARDGVLYDTSGYLYDAFDIWGQGTMVTVSS
VL: DIQMTQSPSSLSASVGDRVTITCRASQGINNYLAWFQQKPGKAPKSLIYAASSLQSGVPPKFSGSGSGTDFTLTISSLQPEDFATYYCLHYNSYPWTFGQGTKVEIK
B8: Ab709TK (antibody, V domains shown)
VH: QVQLVESGGGVVQPGKSLRLSCAASGFTFSSYAMHWVRLAPGKGLEWVAVISPDGKNKYYVDSVKGRSTISRDNSKNTLYLLMNSLRAEDTAVYYCATTQSLWFGQFYYIYGMDVWGQGTTVTVSS
VL: QSVLTQPHSVSESPGKTITISCTGSSGSIASNYVQWYQQRPGSAPTTVIYEDTERPSGVPDRFSGSIDSSSNSASLTISGLKTEDEADYYCQSYDSNNVVFGGGTKLTVL
B9: Ab369 (antibody, V domains shown)
VH: QVQLVQSGAEVKKPGASVKVSCKASGYTLTNRAIHWVRQAPGQRLEWMGWINAGKGNTKYSQKFQGRVTITRDTSASTAYMELSSLKSEDTAFYYCATGDGYNYGYDSWGQGTLVTVSS
VL: NFMLTQPPSVSVAPGKTARISCGGTNIGSKSVHWYQQKPGQAPVLVVHDDSDRPSGIPERFSASNSGNTATLTISRVEAGDEADYYCQVWDSTSDLPEVVFGGGTKLTVL
B10: Ab376 (antibody, V domains shown)
VH: EVQLVESGGGLVQPGGSLRLSCEASEFTLNSHYMNWVRQAPGKGLEWVSVIYSSGSTYYADSVKGRFTISRHNSKDTLYLQMNSLKPEDTAVYYCARPNYGGNSIWYFDLWGRGTLVTVSS
VL: DIQMTQSPSSVSASVGDRVTITCRASQGIGSWLAWYQQTPGKAPKLLIYAASSLQSGVPSRFSGSGSGTDFTLTISSLQPEDFATYYCQQANSFPLTFGGGTKVEIK
B11: Ab302 (antibody, V domains shown)
VH: EVQLVESGGGLVQPGGSLRLSCAASGVIVSRNYMTWVRQAPGKGLEWVSVIYSGGSTFYADSVKGRFTISRDNSKNTLYLQMNSLRAEDTAVYYCARDRGEDVFDIWGQGTMVTVSS
VL: DIQLTQSPSSLSASVGDRVTITCRASQGISSYLAWYQQKPGKAPKLLIYAASTLQSGVPSRFSGSGSGTDFTLTISSLQPEDFATYYCQQLNSYPGYTFGQGTKLEIK
B12: Ab315 (antibody, V domains shown)
VH: EVQLLESGGGLIQPGGSLRLSCAASGLIVSSNYMSWVRQAPGKGLEWVSVIYSGGSTYYADSVKGRFISSRDNSKNTLYLQMNSLRAEDTAVYYCARGELDLPYGMDVWGQGTTVTVSS
VL: QAVVTQPPSVSAAPGQKVTISCSGSSSNIGNNYVSWYQQLPGTAPKLLICDTNKRPSGIPDRFSGSKSGTSATLGITGLQTGDEADYYCGTWDRSLSAGVFGGGTKLTVL
B13: Ab175 (antibody, V domains shown)
VH: EVQLVESGGGLVQPGGSLRLSCAASGIIVSSNYMTWVRQAPGKGLEWVSVLYSGGSTFYADSVKGRFTISRDNSKNMLYLQMNSLRAEDTAVYYCARDLQELGVDCWGQGTLVTVSS
VL: DIQLTQSPSFLSASVGDRVTITCRASQGISSYLAWYQQKPGKAPKLLIYAASTLQSGVPSRFSGSGSGTEFTLTISSLQPEDFATYYCQQLDSYPRFGGGTKVEIK
B14: Ab374 (antibody, V domains shown)
VH: EVQLVESGGGLIQPGGSLRLSCVASGFTVSSNYLAWVRQAPGQGLEWVSLIYPGGSTFYADSVKGRFTISRGNSNNTLYLQLNSLRTEDTAVYYCASLYRRGGDSWGQGTLVTVSS
VL: DIQMTQSPSSLSASVGDRVTITCQASQDIRNYLNWYQQKPGKAPKLLIYDASNLQTGVPSRFSGRGSGTDFTFTISSLQAEDIATYYCQQYDNLPITFGQGTRLEIK
B15: Ab114 (antibody, V domains shown)
VH: EVQLVESGGGLIQPGGSLRLSCAASGFTVSSNYMNWVRQAPGKGLEWVSVIYSGGSTFYADSVKGRFTISRDNSKNTLYLQMNSLRVEDTAVYYCARDLDTQGGMDVWGQGTTVTVSS
VL: EIVLTQSPGSLSLSPGERATLSCRASQGVSSSYLAWYQHKPGQAPRLLIFGASTRATGIPDRFSGSGSGTDFTLTISRLEPEDFAVYYCQLYGSSPGTFGQGTKLEIK
B16: Ab176 (antibody, V domains shown)
VH: EVQLVESGGGLVQPGGSLRLSCAASGFTFSSYSMNWVRQAPGKGLEWVSYISGSSSTIYYADSVKGRFTISRDNAKNSLYLQMNSLRAEDTAVYYCVSSEWLLPRFFDYWGQGTLVTVSS
VL: QPVLTQEASVSGTVGQKVTLSCTGNRNNIGSYPVGWYQQISHGAPKTVMFGNSPPSGIPDRFFGSRSGTTASLTISGLQPEDEADYYCSTWDYSLSAVVFGGGTKLTVL
B17: Ab863 (antibody, V domains shown)
VH: EVQLVQSGAEVKKPGASVKVSCQASGYTFITYYMHWVRQAPGQGLEWMGIINPDGGSISYAQKFQGRVTMTRDTSTSTVYMELSSLRSEDTAVYYCARGLSPTFSSSWFDNWGLGTLVTVSS
VL: DVVMTQSPATLSVSPGERATLSCRASQSVSSNLAWYQQKPGQAPRLLIYGASTRDTGIPARFSGSGSGTEFTLTISSLQSEDFAVYFCQQYKNWLLTFGGGTKVEIK

Each binder was assayed against spike protein of SARS-CoV-2 (Wuhan strain) on pseudovirus (SARS-CoV-2 (Wuhan strain), UniProt P0DTC2 14-1254) (assay: cell-based or functional assay).
B1 was tested, and the “IC50 of pseudovirus infection (luciferase)” value (“IC50 of pseudovirus infection” below) was 0.023 µg/mL.
In the case of B2, the “IC50 of pseudovirus infection” value is reported as 0.0084 µg/mL.
For B3, the “IC50 of pseudovirus infection” value was 0.005 µg/mL.
For B4, the “IC50 of pseudovirus infection” value was 0.105 µg/mL.
In the case of B5, the “IC50 of pseudovirus infection” value is reported as 0.0403 µg/mL.
For B6, the “IC50 of pseudovirus infection” value was 0.0468 µg/mL.
With B7 the “IC50 of pseudovirus infection” value was 0.0349 µg/mL.
In the case of B8, the “IC50 of pseudovirus infection” value is reported as 0.0717 µg/mL.

These binders were tested against T1, RBD derived from SARS-CoV-2 (Wuhan strain) (SARS-CoV-2 (Wuhan strain), UniProt P0DTC2 319-541) (assay: BLI (Octet), RBD of the Wuhan strain).
T1 construct: domain: RBD
B2 was tested, and the Kd was 3900 pM.
Work on B9 yielded a Kd of 197 pM.
Work on B10 yielded a Kd of 110 pM.

The binders below were run against T2, full-length spike protein of SARS-CoV-2 (Wuhan strain) (SARS-CoV-2 (Wuhan strain), UniProt P0DTC2 14-1273) (assay: ACE2 competition, spike on 293T cells, antibody 4 µg/mL).
T2 construct: whole, on cells; Expressed in 293T cells
With B1 the “binding amount (%) of ACE2 protein” value was 0.3%.
B2 was tested, and the “binding amount (%) of ACE2 protein” value was 0.4%.
B3 was tested, and the “binding amount (%) of ACE2 protein” value was 0.9%.
With B11 the “binding amount (%) of ACE2 protein” value was 4.7%.
With B4 the “binding amount (%) of ACE2 protein” value was 4.6%.
B12 was tested, and the “binding amount (%) of ACE2 protein” value was 5.2%.
With B13 the “binding amount (%) of ACE2 protein” value was 6.9%.
B9 was tested, and the “binding amount (%) of ACE2 protein” value was 4.1%.
With B5 the “binding amount (%) of ACE2 protein” value was 0.3%.
In the case of B14, the “binding amount (%) of ACE2 protein” value is reported as 10.1%.
For B10, the “binding amount (%) of ACE2 protein” value was 5.1%.
B6 was tested, and the “binding amount (%) of ACE2 protein” value was 0.9%.
B7 was tested, and the “binding amount (%) of ACE2 protein” value was 0.9%.
B8 was tested, and the “binding amount (%) of ACE2 protein” value was 0.6%.
B15 was tested, and the “binding amount (%) of ACE2 protein” value was 10.9%.
With B16 the “binding amount (%) of ACE2 protein” value was 8.3%.
B17 was tested, and the “binding amount (%) of ACE2 protein” value was 1.7%.

What follows are binders tested against T1, RBD derived from SARS-CoV-2 (Wuhan …) (assay: RBD beads, antibody 1 µg/mL, then labelled ACE2, flow cytometry).
For B11, the “fluorescence of ACE2 protein” value was 372.
B12 was tested, and the “fluorescence of ACE2 protein” value was 307.
In the case of B13, the “fluorescence of ACE2 protein” value is reported as 439.
In the case of B9, the “fluorescence of ACE2 protein” value is reported as 430.
In the case of B14, the “fluorescence of ACE2 protein” value is reported as 429.
For B10, the “fluorescence of ACE2 protein” value was 134.
For B15, the “fluorescence of ACE2 protein” value was 2040.
With B16 the “fluorescence of ACE2 protein” value was 1190.

The binders below were run against T1, RBD derived from SARS-CoV-2 (Wuhan …) (assay: RBD beads, antibody 4 µg/mL, then labelled ACE2, flow cytometry).
With B11 the “fluorescence of ACE2 protein” value was 189.
In the case of B12, the “fluorescence of ACE2 protein” value is reported as 160.
In the case of B9, the “fluorescence of ACE2 protein” value is reported as 107.
With B14 the “fluorescence of ACE2 protein” value was 244.
With B10 the “fluorescence of ACE2 protein” value was 45.
In the case of B15, the “fluorescence of ACE2 protein” value is reported as 672.
In the case of B16, the “fluorescence of ACE2 protein” value is reported as 366.

What follows are binders tested against T1, RBD derived from SARS-CoV-2 (Wuhan …) (assay: RBD beads, antibody 0.25 µg/mL, then labelled ACE2, flow cytometry).
For B11, the “fluorescence of ACE2 protein” value was 1400.
In the case of B12, the “fluorescence of ACE2 protein” value is reported as 927.
With B13 the “fluorescence of ACE2 protein” value was 1660.
In the case of B9, the “fluorescence of ACE2 protein” value is reported as 1640.
B14 was tested, and the “fluorescence of ACE2 protein” value was 1360.
With B10 the “fluorescence of ACE2 protein” value was 445.
B15 was tested, and the “fluorescence of ACE2 protein” value was 3900.
In the case of B16, the “fluorescence of ACE2 protein” value is reported as 2660.
